Four molecules from US20260347475 (published 2026) can be followed below.

B1: P-1150 (antibody, V domains shown)
VH: QVQLVQSGVEVKKPGASVKVSCKASGYTFTNYYMYWVRQAPGQGLEWMGGINPSNGGTNFAQKFQGRVTLTTDSSTTTAYMELKSLQFDDTAVYYCARRDYRFDMGFDYWGQGTTVTVSS
VL: EIVLTQSPATLSLSPGERATLSCRASQGVSTSGYSYLAWYQQKPGQAPRLLIYLASYRASGVPARFSGSGSGTDFTLTISSLEPEDFAVYYCQHSRDLPLTFGGGTKVEIKR
B2: P-1151 (antibody, V domains shown)
VH: QVQLVQSGVEVKKPGASVKVSCKASGYTFTNYYMYWVRQAPGQGLEWMGGINPSNGGTNYAQKFQGRVTLTTDSSTTTAYMELKSLQFDDTAVYYCARRDYRFDMGFDYWGQGTTVTVSS
VL: EIVLTQSPATLSLSPGERATLSCRASQGVSTSGYSYLHWYQQKPGQAPRLLIYLASYRASGVPARFSGSGSGTDFTLTISSLEPEDFAVYYCQHSRDLPLTFGGGTKVEIKR
B3: P-1153 (antibody, V domains shown)
VH: QVQLVQSGVEVKKPGASVKVSCKASGYTFTNYYMYWVRQAPGQGLEWMGGINPSNGGTNYAQKFQGRVTLTTDSSTTTAYMELKSLQFDDTAVYYCARRDYRFDMGFDYWGQGTTVTVSS
VL: EIVLTQSPATLSLSPGERATLSCRASQGVSTSGYSYLAWYQQKPGQAPRLLIYLASYRASGVPARFSGSGSGTDFTLTISSLEPEDFAVYYCQHSRDLPLTFGGGTKVEIKR
B4: P-1148 (antibody, V domains shown)
VH: QVQLVQSGVEVKKPGASVKVSCKASGYTFTNYYMYWVRQAPGQGLEWMGGINPSNGGTNFAQKFQGRVTLTTDSSTTTAYMELKSLQFDDTAVYYCARRDYRFDMGFDYWGQGTTVTVSS
VL: EIVLTQSPATLSLSPGERATLSCRASQGVSTSGYSYLHWYQQKPGQAPRLLIYLASYRASGVPARFSGSGSGTDFTLTISSLEPEDFAVYYCQHSRDLPLTFGGGTKVEIKR

In the assay the target is human PD1 (human, UniProt Q15116). Description: ELISA. A general note: In an ELISA, binding on a coated surface is turned into a signal by an enzyme label.
Sequence of human PD1 (Q15116 25-167): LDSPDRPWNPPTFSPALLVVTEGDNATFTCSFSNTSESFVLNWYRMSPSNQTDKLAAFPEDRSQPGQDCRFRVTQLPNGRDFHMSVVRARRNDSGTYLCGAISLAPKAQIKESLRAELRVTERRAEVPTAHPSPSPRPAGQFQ
A word on the EC50: it is the concentration at which the effect is half-maximal. Read a low EC50 as greater potency. With B1, it took 0.088 nM to reach a half-maximal effect (EC50).

B2 gave an EC50 of 0.065 nM.

B3 gave an EC50 of 0.11 nM.

B4 came in with an EC50 of 0.093 nM.
